# Data reported in US20240197877A1, “BINDING PROTEINS RECOGNIZING HA-2 ANTIGEN AND USES […]” (published 2024).
# B1: HA2-MJ14-DP317 MGTM Sequence (also known as “TCR-101” and “MJ14-DP317”) (TCR, V domains shown)
# V domain 1: QTVTQSQPEMSVQEAETVTLSCTYDTSESDYYLFWYKQPPSRQMILVIRQEAYKQQNATENRFSVNFQKAAKSFSLKISDSQLGDAAMYFCAYRSERYSTLTFGKGTMLLVSP
# V domain 2: SQTIHQWPATLVQPVGSPLSLECTVEGTSNPNLYWYRQAAGRGLQLLFYSVGIGQISSEVPQNLSASRPQDRQFILSSKKLLLSDSGFYLCAWSVPYLAGGKRPDTQYFGPGTRLTVLE
# Legend:
# [1] = target: MYO3A/MYO3B peptide (…) on peptide-pulsed T2 cells, HLA-A*02:01 (human); test: cell-based or functional assay
# [2] = target: MALT1 peptide (…) on peptide-pulsed T2 cells, HLA-A*02:01 (human); test: cell-based or functional assay
binder,measurement,setting,value
B1,EC50 of cytotoxicity (AUC of growth of peptide-pulsed T2 cells over 72 h against peptide dose),[1],100 fold lower affinity than the target HA-2 peptide
same,EC50 of cytotoxicity (AUC of growth of peptide-pulsed T2 cells over 72 h against peptide dose),[2],100 fold lower affinity than the target HA-2 peptide
